The target of test [1] is CmTic110B (Cyanidioschyzon merolae 10D). The experiment in a line: SEC + other: small-angle X-ray scattering.
Test [2] concerns the target CmTic110C (Cyanidioschyzon merolae 10D). Briefly: SEC + other: small-angle X-ray scattering.

CmTic110B (domain or fragment): in test [1], the stoichiometry N (in general, a count of units in the complex or per binding partner) worked out at 2.

As to CmTic110C (domain or fragment), the stoichiometry N in test [2] worked out at 2.

The values above are taken from publication PMC3823011.
